Values quoted from earlier work, collected in PMC3131494.

Biological target: eNOS (UniProt P29474)
Chain of UniProt P29474 (P29474 2-1203): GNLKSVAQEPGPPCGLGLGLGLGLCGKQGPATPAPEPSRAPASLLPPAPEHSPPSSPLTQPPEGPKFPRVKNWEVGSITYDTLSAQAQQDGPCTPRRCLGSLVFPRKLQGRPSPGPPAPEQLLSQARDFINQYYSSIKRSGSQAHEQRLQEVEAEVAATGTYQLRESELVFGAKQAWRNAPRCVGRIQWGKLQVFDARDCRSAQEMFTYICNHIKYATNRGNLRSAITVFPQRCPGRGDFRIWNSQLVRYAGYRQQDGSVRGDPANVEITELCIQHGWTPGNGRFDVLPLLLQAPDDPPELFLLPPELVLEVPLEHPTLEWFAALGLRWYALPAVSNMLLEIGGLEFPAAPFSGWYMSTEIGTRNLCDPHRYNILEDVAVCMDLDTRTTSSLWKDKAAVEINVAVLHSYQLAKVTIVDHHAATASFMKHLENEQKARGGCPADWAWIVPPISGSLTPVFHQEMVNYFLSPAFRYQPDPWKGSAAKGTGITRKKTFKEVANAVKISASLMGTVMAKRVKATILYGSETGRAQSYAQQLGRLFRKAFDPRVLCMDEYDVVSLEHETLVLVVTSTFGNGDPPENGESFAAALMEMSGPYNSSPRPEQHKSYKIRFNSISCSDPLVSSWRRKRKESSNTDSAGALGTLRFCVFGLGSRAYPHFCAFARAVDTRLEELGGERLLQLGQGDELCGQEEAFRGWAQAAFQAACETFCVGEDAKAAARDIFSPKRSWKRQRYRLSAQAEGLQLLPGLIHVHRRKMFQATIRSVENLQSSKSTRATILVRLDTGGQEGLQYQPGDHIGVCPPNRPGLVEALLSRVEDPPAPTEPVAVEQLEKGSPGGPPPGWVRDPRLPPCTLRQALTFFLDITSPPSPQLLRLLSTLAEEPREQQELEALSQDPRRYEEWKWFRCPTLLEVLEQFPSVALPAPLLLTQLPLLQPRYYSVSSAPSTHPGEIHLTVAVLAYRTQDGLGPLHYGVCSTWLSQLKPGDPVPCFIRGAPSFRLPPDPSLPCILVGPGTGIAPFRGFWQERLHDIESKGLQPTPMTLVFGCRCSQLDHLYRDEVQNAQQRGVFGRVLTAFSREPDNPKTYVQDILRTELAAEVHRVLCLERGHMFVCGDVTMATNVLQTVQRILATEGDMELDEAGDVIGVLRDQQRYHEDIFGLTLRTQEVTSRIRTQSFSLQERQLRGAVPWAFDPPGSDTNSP

Kd: 30 nM
Substance: dynamin (from UniProt P50570)
